From the supplement of paper PMC12764529
± gives the half width of the 95% confidence interval.

Tests used:
[1] = folding stability dG unfold from trypsin proteolysis; higher = more stable
Method in brief: (§1)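 Digests were run with trypsin and chymotrypsin at 11 concentrations in threefold dilutions, plus a no-protease condition, on designed mini-proteins in a PA-tagged cDNA display construct. The mini-proteins were under 80 residues, had no cysteine, and were kept only when AlphaFold2 dimer inter-PAE was above 15. After sequencing, Bayesian fitting of the counts gave K50, from which unfolding free energy was derived against a sequence-predicted unfolded-state K50 and a shared folded-state K50, per protease or combined.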

[2] = folding stability dG unfold from chymotrypsin proteolysis; higher = more stable
Method in brief: as §1

[3] = folding stability dG unfold (combined trypsin and chymotrypsin); higher = more stable
Method in brief: as §1

SAGGMIAEIKPIPPNVPDGATATITFPDGTPAEAELRTEPLEDGPRRVVLKLKGKEGEIELEFVLPLSAGGS [r8_360_TrMRF]
folding stability dG unfold [1]: 0.16 ± 0.13 kcal/mol | folding stability dG unfold [2]: -0.488 ± 0.31 kcal/mol | folding stability dG unfold [3]: 0.0112 ± 0.099 kcal/mol

SAGGMIEIEYNPDQGYFRITVWPMNPKNGKPKSKEIPIPFEGDPEEALDKVKDLIDDHPGYHVDIEPYSAGG [r13_284_TrROS]
folding stability dG unfold [1]: 0.657 ± 0.068 kcal/mol | folding stability dG unfold [2]: 1.27 ± 0.13 kcal/mol | folding stability dG unfold [3]: 1.05 ± 0.14 kcal/mol

SAGGMIELTIVVKTKEEAEKAAEELARKLAEELGVEVTVTSVEVEEVEDPETGETYLVVRVRIEVKPSAGGS [r8_171_TrROS_Hall]
folding stability dG unfold [1]: 4.75 ± 0.27 kcal/mol | folding stability dG unfold [2]: 4.12 ± 0.11 kcal/mol | folding stability dG unfold [3]: 4.53 ± 0.23 kcal/mol

SAGGMIKITVTLPDPARVRALFAELGLDVEVTPLPDGSVEIYLPEEYKEKVVEALPEEEVEITPVPPLSAGG [r13_261_JUSTAS]
folding stability dG unfold [1]: 2.5 ± 0.13 kcal/mol | folding stability dG unfold [2]: 3.05 ± 0.17 kcal/mol | folding stability dG unfold [3]: 2.91 ± 0.14 kcal/mol

SAGGMIKLEFENPDGMRIKIEIDRIHRFDPDNGYLIIPVKIEVEPPGKPREIDGTIILPPGMPPGQPLSAGG [r13_823_TrROS]
folding stability dG unfold [1]: 2.04 ± 0.19 kcal/mol | folding stability dG unfold [2]: 0.811 ± 0.082 kcal/mol | folding stability dG unfold [3]: 1.43 ± 0.24 kcal/mol

SAGGMIRIERDGDRLTIEIHLPEGEELTPEQLEELARALLEELGPDARVVRVERLEDGTVRIEVELPSAGGS [r8_103_TrROS_Hall]
folding stability dG unfold [1]: 3.32 ± 0.14 kcal/mol | folding stability dG unfold [2]: 2.35 ± 0.07 kcal/mol | folding stability dG unfold [3]: 2.88 ± 0.13 kcal/mol

SAGGMITATFTIDLGAGPVTFTFDITDIETALEKIKEYLKSQGIDAKLVSVSVDPANGTVPMKLSVPPSAGG [r13_567_JUSTAS]
folding stability dG unfold [1]: 1.58 ± 0.043 kcal/mol | folding stability dG unfold [2]: 1.46 ± 0.14 kcal/mol | folding stability dG unfold [3]: 1.56 ± 0.12 kcal/mol

SAGGMIVIEKEEDGFYRITIRNKETGEEVEEIPISKEELEELLKEAEENMSLEEIAEKLGLEIEIEKVSAGG [r13_836_TrROS_Hall]
folding stability dG unfold [1]: 1.68 ± 0.047 kcal/mol | folding stability dG unfold [2]: 0.971 ± 0.023 kcal/mol | folding stability dG unfold [3]: 1.27 ± 0.12 kcal/mol

SAGGMIVIEVETEEEALEAARELAKKLLEKLKEEGIEEVTLTVTVEVVDEKTKEVKTYTLTLTVKKPSAGGS [r8_163_TrROS_Hall]
folding stability dG unfold [1]: 3.94 ± 0.23 kcal/mol | folding stability dG unfold [2]: 4.19 ± 0.051 kcal/mol | folding stability dG unfold [3]: 4.08 ± 0.21 kcal/mol

SAGGMKFELVARFDSKEAAEKAVEELVRELFPDFDVEVEVEVIEDPETGTFLAIATITLPLPGPEDLSAGGS [r8_17_TrMRF]
folding stability dG unfold [1]: 4.31 ± 0.21 kcal/mol | folding stability dG unfold [2]: 4.18 ± 0.19 kcal/mol | folding stability dG unfold [3]: 4.19 ± 0.2 kcal/mol

SAGGMKIEFDEKTKRITITLPDGKKVEIELKDGRKVEITFERVDGKLKVVIKHKNEEEALELAKKLLSAGGS [r16_623_TrROS_Hall]
folding stability dG unfold [1]: 1.15 ± 0.086 kcal/mol | folding stability dG unfold [2]: 1.34 ± 0.082 kcal/mol | folding stability dG unfold [3]: 1.55 ± 0.26 kcal/mol

SAGGMKIEITVSPVGDVVNVEVKIELPEGPVEVVDETPAEVAPDGSIHIKLKLKLPNGPWLEMEIEVSAGGS [r8_449_JUSTAS]
folding stability dG unfold [1]: 2.91 ± 0.24 kcal/mol | folding stability dG unfold [2]: 3.97 ± 0.15 kcal/mol | folding stability dG unfold [3]: 3.87 ± 0.33 kcal/mol

SAGGMKIEIVEIEREGNTITIKAKITLPDGTVIEITAKAEFVDGELKLEIKVEVRKLPPPPPPPPEESAGGS [r8_458_TrROS_Hall]
folding stability dG unfold [1]: 2.87 ± 0.27 kcal/mol | folding stability dG unfold [2]: 2.73 ± 0.39 kcal/mol | folding stability dG unfold [3]: 2.55 ± 0.53 kcal/mol

SAGGMKIEVRPLPGDGFVVRLPGDVVALIDPSTGEAVAFFPDGSVARLTITRDPDRPEFTITIEPVGSAGGS [r8_186_TrMRF]
folding stability dG unfold [1]: 1.77 ± 0.059 kcal/mol | folding stability dG unfold [2]: 1.89 ± 0.032 kcal/mol | folding stability dG unfold [3]: 1.83 ± 0.069 kcal/mol

SAGGMKIGVLLPKSIPPEKAEEFLKKLNPDLEVEYRPVEPGSLKDIPPEIEVIVLPADDDFALALVKPSAGG [r13_649_TrMRF]
folding stability dG unfold [1]: 0.323 ± 0.044 kcal/mol | folding stability dG unfold [2]: -0.401 ± 0.12 kcal/mol | folding stability dG unfold [3]: 0.00463 ± 0.11 kcal/mol

SAGGMKIKVTVEVTFPDGTVRTFPVPDATSEEEVRAILAERGFGDLADVPIRITEREPVPAVPPEELLSAGG [r13_493_JUSTAS]
folding stability dG unfold [1]: 1.68 ± 0.033 kcal/mol | folding stability dG unfold [2]: 1.76 ± 0.043 kcal/mol | folding stability dG unfold [3]: 1.69 ± 0.071 kcal/mol

SAGGMKINPKVFGNYVLVEVENPETGSRILKLVEFNPGPKTATVKVFYIDPNGKPTLLEEKTFSLPDLSAGG [r13_768_TrMRF]
folding stability dG unfold [1]: 1.36 ± 0.018 kcal/mol | folding stability dG unfold [2]: 2.736 ± 0.025 kcal/mol | folding stability dG unfold [3]: 2.32 ± 0.071 kcal/mol

SAGGMKIVSIEYDKENKKITIKVEAPPGVSAEELAKKIKELAKELFGKEIEIEVKVEKVEFFEPEEESAGGS [r8_314_TrROS_Hall]
folding stability dG unfold [1]: 3.61 ± 0.16 kcal/mol | folding stability dG unfold [2]: 3.12 ± 0.13 kcal/mol | folding stability dG unfold [3]: 3.33 ± 0.12 kcal/mol

SAGGMKIVSVEFDEETGEVYVKIEVPTPEELEALKKLPGEVRIVDKETGEVKVIKVKSIEELLELLKKSAGG [r13_604_TrROS_Hall]
folding stability dG unfold [1]: 1.86 ± 0.086 kcal/mol | folding stability dG unfold [2]: 2.18 ± 0.071 kcal/mol | folding stability dG unfold [3]: 2.05 ± 0.15 kcal/mol

SAGGMKIYYISKGKKYYVKVILPNNEIIEIETESLEEAIKKAKEELIKKYPNIPPENFKIDYIIPLPESAGG [r13_887_TrMRF]
folding stability dG unfold [1]: 3.81 ± 0.2 kcal/mol | folding stability dG unfold [2]: 4.34 ± 0.078 kcal/mol | folding stability dG unfold [3]: 4.18 ± 0.2 kcal/mol

SAGGMKKEKVKITIVVPVEDAEKLREALEKLGFKVVEEKENEDGLLTLTVEVDGKKIEIKIVKKEELSAGGS [r16_170_TrROS_Hall]
folding stability dG unfold [1]: 1.13 ± 0.088 kcal/mol | folding stability dG unfold [2]: 0.81 ± 0.095 kcal/mol | folding stability dG unfold [3]: 1.05 ± 0.28 kcal/mol

SAGGMKKGQKVTITIEKNEDGTLRITVKVDGKEFVFEFPKDMSLEELLKKAEEAAKKLNLPVEIEPVSAGGS [r16_446_TrROS_Hall]
folding stability dG unfold [1]: 1.29 ± 0.069 kcal/mol | folding stability dG unfold [2]: 2.65 ± 0.15 kcal/mol | folding stability dG unfold [3]: 2.3 ± 0.25 kcal/mol

SAGGMKKYKIKVENLPPGARIITPDGREIKPGEEVEIELPEDVKEIYVILPDGKIVKVKVEEVEPEEESAGG [r13_441_TrROS_Hall]
folding stability dG unfold [1]: 4.12 ± 0.3 kcal/mol | folding stability dG unfold [2]: 4.31 ± 0.15 kcal/mol | folding stability dG unfold [3]: 3.71 ± 0.76 kcal/mol

SAGGMKKYKVTVTIELTPPDGTTTTVTVTIDVDGDEKKALEEAEKVAEELKAAGYPVTIKEIKIYEESAGGS [r16_525_JUSTAS]
folding stability dG unfold [1]: 3.8 ± 0.37 kcal/mol | folding stability dG unfold [2]: 4.51 ± 0.3 kcal/mol | folding stability dG unfold [3]: 4.69 ± 0.78 kcal/mol

SAGGMKLKPVKEGEEIEIELEIVDKETKKVYKVKAKITVVKDKETKEYYVKIEIENPETGEKYTFLLKSAGG [r13_262_TrROS_Hall]
folding stability dG unfold [1]: 2.17 ± 0.13 kcal/mol | folding stability dG unfold [2]: 2.34 ± 0.12 kcal/mol | folding stability dG unfold [3]: 2.21 ± 0.36 kcal/mol

SAGGMKLTPEELKGKTIRIRIKVNGKEYEIEAKVVEVDGELYIEVKIINKETKEEKTITIPLDDVEIVSAGG [r13_289_TrROS_Hall]
folding stability dG unfold [1]: 2.67 ± 0.072 kcal/mol | folding stability dG unfold [2]: 2.1 ± 0.064 kcal/mol | folding stability dG unfold [3]: 2.39 ± 0.25 kcal/mol

SAGGMKLTVEIEYDEETEEVTIRIRNEETGEEIEITLSKEEVEKLLEALEKNPEKSIEEALLEALKESAGGS [r8_484_TrROS_Hall]
folding stability dG unfold [1]: 2.58 ± 0.23 kcal/mol | folding stability dG unfold [2]: 2.33 ± 0.11 kcal/mol | folding stability dG unfold [3]: 2.43 ± 0.25 kcal/mol

SAGGMKPGAPVEIEFPIPGIPPGRRFRIMIHYPNGKHVEAEYTDNTIKIEIPVPDGDNIHHIYIYFYSAGGS [r16_179_TrROS]
folding stability dG unfold [1]: 3.27 ± 0.084 kcal/mol | folding stability dG unfold [2]: 4.33 ± 0.11 kcal/mol | folding stability dG unfold [3]: 3.86 ± 0.12 kcal/mol

SAGGMKPGEKTIRLLLKLPPGEELTPEQVEELAKRLAEELREKGYEVEVEVVERDGELYVLVEVRFPESAGG [r13_442_TrROS_Hall]
folding stability dG unfold [1]: 3.55 ± 0.1 kcal/mol | folding stability dG unfold [2]: 4.275 ± 0.034 kcal/mol | folding stability dG unfold [3]: 4.1 ± 0.044 kcal/mol

SAGGMKPGETWRIRTPGKTITIEVKDGKITVTVEENGKKKTIVVEAETEEEALEALRSIPGLEIEKVSAGGS [r16_583_TrROS_Hall]
folding stability dG unfold [1]: 1.73 ± 0.05 kcal/mol | folding stability dG unfold [2]: 1.32 ± 0.13 kcal/mol | folding stability dG unfold [3]: 1.61 ± 0.16 kcal/mol

SAGGMKSETIPLTTPEGVPFEVTITTENGKVTVTITPLDPSAPEEVVEAVRAAVEARAAAAGKTVTLVSAGG [r13_774_JUSTAS]
folding stability dG unfold [1]: 1.47 ± 0.046 kcal/mol | folding stability dG unfold [2]: 1.37 ± 0.04 kcal/mol | folding stability dG unfold [3]: 1.42 ± 0.07 kcal/mol

SAGGMKTFTLENPPLAPPDRPLGGSTLKLPDGTVLVRINLPSGETILLPSYEELEKLKASGEPVSVTASSAG [r5_42_JUSTAS]
folding stability dG unfold [1]: 0.285 ± 0.055 kcal/mol | folding stability dG unfold [2]: 0.254 ± 0.15 kcal/mol | folding stability dG unfold [3]: 0.348 ± 0.12 kcal/mol

SAGGMKTIEITIKTEDGYTIKIKITEKDGKLYIEIEIEDPNMSEEQREKIKKEIEELAKKLNIKVEIPSAGG [r13_774_TrROS_Hall]
folding stability dG unfold [1]: 3.48 ± 0.31 kcal/mol | folding stability dG unfold [2]: 2.8 ± 0.27 kcal/mol | folding stability dG unfold [3]: 3.14 ± 0.42 kcal/mol

SAGGMKTLKIKIKVPEDEEKAEELAKKLEELFGLKVEVEKKDGELTITVEVSEEVRELLKELGVEIEPSAGG [r13_156_TrROS_Hall]
folding stability dG unfold [1]: 2.58 ± 0.16 kcal/mol | folding stability dG unfold [2]: 4.15 ± 0.089 kcal/mol | folding stability dG unfold [3]: 3.79 ± 0.16 kcal/mol

SAGGMKTSAEELVERLKKELEAKGLKPKEVKKLPDGSLLVEFEEDVVVYIDAKTGTVTVLTPEEYEKLSAGG [r13_717_JUSTAS]
folding stability dG unfold [1]: 1.7 ± 0.12 kcal/mol | folding stability dG unfold [2]: 2.68 ± 0.05 kcal/mol | folding stability dG unfold [3]: 2.4 ± 0.14 kcal/mol
